Reference: publication PMC2946090 (Nature, 2010)

Biological target: the molecule itself
Test: crystal structure

B1: CusA efflux pump (full-length CusA membrane protein with a 6xHis tag at the N-terminus) (natural protein, E. coli, UniProt P38054 1-1047, looked up)
chain: MIEWIIRRSVANRFLVLMGALFLSIWGTWTIINTPVDALPDLSDVQVIIKTSYPGQAPQIVENQVTYPLTTTMLSVPGAKTVRGFSQFGDSYVYVIFEDGTDPYWARSRVLEYLNQVQGKLPAGVSAELGPDATGVGWIYEYALVDRSGKHDLADLRSLQDWFLKYELKTIPDVAEVASVGGVVKEYQVVIDPQRLAQYGISLAEVKSALDASNQEAGGSSIELAEAEYMVRASGYLQTLDDFNHIVLKASENGVPVYLRDVAKVQIGPEMRRGIAELNGEGEVAGGVVILRSGKNAREVIAAVKDKLETLKSSLPEGVEIVTTYDRSQLIDRAIDNLSGKLLEEFIVVAVVCALFLWHVRSALVAIISLPLGLCIAFIVMHFQGLNANIMSLGGIAIAVGAMVDAAIVMIENAHKRLEEWQHQHPDATLDNKTRWQVITDASVEVGPALFISLLIITLSFIPIFTLEGQEGRLFGPLAFTKTYAMAGAALLAIVVIPILMGYWIRGKIPPESSNPLNRFLIRVYHPLLLKVLHWPKTTLLVAALSVLTVLWPLNKVGGEFLPQINEGDLLYMPSTLPGISAAEAASMLQKTDKLIMSVPEVARVFGKTGKAETATDSAPLEMVETTIQLKPQEQWRPGMTMDKIIEELDNTVRLPGLANLWVPPIRNRIDMLSTGIKSPIGIKVSGTVLADIDAMAEQIEEVARTVPGVASALAERLEGGRYINVEINREKAARYGMTVADVQLFVTSAVGGAMVGETVEGIARYPINLRYPQSWRDSPQALRQLPILTPMKQQITLADVADIKVSTGPSMLKTENARPTSWIYIDARDRDMVSVVHDLQKAIAEKVQLKPGTSVAFSGQFELLERANHKLKLMVPMTLMIIFVLLYLAFRRVGEALLIISSVPFALVGGIWLLWWMGFHLSVATGTGFIALAGVAAEFGVVMLMYLRHAIEAVPSLNNPQTFSEQKLDEALYHGAVLRVRPKAMTVAVIIAGLLPILWGTGAGSEVMSRIAAPMIGGMITAPLLSLFIIPAAYKLMWLHRHRVRK
stoichiometry N: 3
